Source: the DeepSol protein solubility set

test: soluble on expression in E. coli; label from the status in PepcDB or PDB records

Sequence	soluble on expression in E. coli
MCEQCGKCKCGECTAPRTLPSCLACNRQCLCSAESMVEYGTCMCLVKGIFYHCSNDDEGDSYSDNPCSCSQSHCCSRYLCMGAMSLFLPCLLCYPPAKGCLKLCRRCYDWIHRPGCRCKNSNTVYCKLESCPSRGQGKPSLEHHHHHH	not soluble
PKKEVVRIHASSGTTGKPTVVGYTKKDLKTWAELISRVVTAAGVTDEDTAQVAFGYGLFTGGFGLHYGLENVGASVIPMSSGNTEKQIMLMKDFETTVLICTPSYALYISEVAQKMGIDPKKDLKLKIGLFGGEACSESARTEIESKWGILATQNYGMSELMGPGVSGECEYQCGMHIS	not soluble
MSLVESLADLEEEKKKNILSSGNGEIDKRLGGGIPLGSLTLIEGENDTGKSVLCQQFVYGGLMSGHNIAYYTTENTIKSFLRQMESLSLDVSDFYAWGYLRVFPVHLEGIDWSTEQMRSILNLVANHIKTIRENIAIIDSLTMFTTYSTEDDVLEFLTRLKNLCDNGKTILITLHQHAFKEDTLVRIRSACDCHLFLRKEQVGDRYVSVLEVSKIRGARKTTGNIVSFEVHPGFGLKIIPVSEARAEGHHHHHH	soluble
MASVPENQAPKAIFTFSPEDPVTDENVVFNASNSIDEDGTIAYYVWDFGDGYEGTSTTPTITYKYKNPGTYKVKLIVTDNQGASSSFTATIKVTSATGDNSKFNFEDGTLGGFTTSGTNATGVVVNTTEKAFKGERGLKWTVTSEGEGTAELKLDGGTIVVPGTTMTFRIWIPSGAPIAAIQPYIMPHTPDWSEVLWNSTWKGYTMVKTDDWNEITLTLPEDVDPTWPQQMGIQVQTIDEGEFTIYVDAIDWLEHHHHHH	soluble
MTDAAEEVLLGKKGCTGVITLNRPKFLNALTLNMIRQIYPQLKKWEQDPETFLIIIKGAGGKAFCAGGDIRVISEAEKAKQKIAPVFFREEYMLNNAVGSCQKPYVALIHGITMGGGVGLSVHGQFRVATEKCLFAMPETAIGLFPDVGGGYFLPRLQGKLGYFLALTGFRLKGRDVYRAGIATHFVDSEKLAMLEEDLLALKSPSKENIASVLENYHTESKIDRDKSFILEEHMDKINSCFSANTVEEIIENLQQDGSSFALEQLKVINKMSPTSLKITLRQLMEGSSKTLQEVLTMEYRLSQACMRGHDFHEGVRAVLIDKDQSPKWKPADLKEVTEEDLNNHFKSLGSSDLKFAENLYFQ	soluble
MATKLQDGNTPCLAATPSEPRPTVLVFDSGVGGLSVYDEIRHLLPDLHYIYAFDNVAFPYGEKSEAFIVERVVAIVTAVQERYPLALAVVACNTASTVSLPALREKFDFPVVGVVPAIKPAARLTANGIVGLLATRGTVKRSYTHELIARFANECQIEMLGSAEMVELAEAKLHGEDVSLDALKRILRPWLRMKEPPDTVVLGCTHFPLLQEELLQVLPEGTRLVDSGAAIARRTAWLLEHEAPDAKSADANIAFCMAMTPGAEQLLPVLQRYGFETLEKLAVLG	soluble
GETASSLWIDAAVAVSVPFQLNSVADRMNQGFSRLYQAYLLSRLRRIFLKKLNHLNNSPFSKSDLLSLKTFWDFDERITAPINGFKNAHEYYQKASSRQYLKNITTPTLIIHAQDDPFMTPDAIPASKELSSQTTLELSEYGGHVGFIAGTGKNSSQPVYWLEQRIPEFLLEYLS	not soluble
MEKSEGGDQPESAGEKEQVHQGADQQVQREKRRRSVSPDGGDVGSVKMADVVLEGASDVAVTKKRKITEEAAAAAKVNSEAITSATGPNTSTQAAASANEEDDKDKEDDKDAKKKKNRCGECRKKVGLTGFQCRCGGLYCAVHRYSDKHNCTFDYREHGAQEIRRNNPVVVGEKIQKILEHHHHHH	not soluble
SNAMKQLTILGSTGSIGNSTLSVVRANPELFKVTALVAGRNVREMAQQCLEFSPRYAAMSDEHSAKSLRLLLAEQGSDTEVYSGETAACELAALDDVDQVMAAIVGIAGLPSTLAAIRAGKQVLLANKESLITCGKLFMDEVKRSRAQLLPIDSEHNAIFQSLPERIQRQLGYSSLNENGVSRIILTGSGGPFRETPLSQFSDVTPDQACAHPNWSMGRKISVDSATMMNKGLEYIEARWLFNASAEQIEVVLHPQSVIHSMVRYHDGSILAQMGTPDMRTPIAHAMAYPMRVSSGVAPLDFCKVGALTFTTPDYQRYPCLKLAIDACNAGQAATTALNAANEISVMAFLDSKIRFTDIEVINRTVVEGLLLSEPTSVEEVLVIDRKARDVAAQVIAKLNN	soluble
MAHERAGQLAQPQDLIDIAEVVTAYYTRTPDADNPDQQVAFGTSGHRGSSLDTAFNENHILAITQAIVEYRAQHHIGGPIFIGRDTHALSEPAMISALEVLLAHGIEVLVDDRGRYTPTPAVSHAILAYNAQRSDSSQYSDGIVITPSHNPPRDGGFKYNPPNGGPADTDATDWIADRANTLLREGLVSVKRTSVTGVLDPRAHRHNYMENYIADLPNVVDIDAIRNSGLAIGADPMGGASVDYWGAIAEKHSLNLTVVNPLVDATWRFMTLDTDGKIRMDCSSPDSMASLVHNRTKYDIATGNDADADRHGIVTPDAGLMNPNHYLAVAIDYLFSHRPQWNSSTAVGKTLVSSSMIDRVVADLGRKLVEVPVGFKWFVPGLVDGSVGFGGEESAGASFLRHNGTVWSTDKDGIILDLLASEITAVTGKTPSQRYEELAARFGSPAYARTDAPATREQKAVLKKLSPEQVTATELAGEAITAKLTTAPGNGAAIGGLKVTTENAWFAARPSGTEDKYKIYAESFLGADHLAMVQREAQNLVSDVL	not soluble
MKRILVSGGAGFIGSHLCTRLVNEGHDVICLDNFFTGSKDNIKHLMGNHHFEVVRHDVTYPYSAEVDEIYNLACPASPIHYQHDPIQTAKTSVMGAINMLGLAMRLDAKILQASTSEVYGDPIIHPQPESYWGNVNPVGYRSCYDEGKRCAETLFMDYYRQNQTRIKIIRIFNTYGPRMLPNDGRVVSNFIIQALNNEDITIYGDGKQTRSFQYIDDLIEGMVRMMDTEDDFTGPINIGNPNEFPVLELAERVIRMTGSTSKIVFKPLPTDDPKQRQPDIKLAKEKLGWQPTVELEDGLKRMIEYFKNV	not soluble
SAATMKKAAAEDVNVTFEDQQKINKFARNTSRITELKEEIEVKKKQLQNLEDACDDIMLADDDCLMIPYQIGDVFISHSQEETQEMLEEAKKNLQEEIDALESRVESIQRVLADLKVQLYAKFGSNINLEADES	soluble
MADAIQTAPRFTGKNRDPQLFTVTNHYNEAGTGPLEAAICRHNPLHVVSAALRHQHEESQCPDRKWNPSEKIVKYKDMQ	not soluble
MGSDKIHHHHHHMINQAKIEHSGLVDDFIGLYQALNKDNLHLLAEVYDDNICFIDPMHQVNGLNALTQYFAKLYQNIGYIHFEIKEVLQDDTQASLFWQMQYRHPKLNKGEVVRVDGMSQLKFHQRIYFHRDYFDLGQMLYEHLPCMGGLIRLLKDRAAK	not soluble
MSLYATMESVRLQSEAQQLAEMILQSETAENYRNCYKRLQEDEEAGRIIRSFIKIKEQYEDVQRFGKYHPDYREISRKMREIKRELDLNDKVADFKRAENELQSILDEVSVEIGTAVSEHVKVPTGNPYFDGLSSCGGGCGSGGSCGCKVSEGHHHHHH	soluble
MGSDKIHHHHHHMSHKFKFLTLPHRSGEVANVFIHGYSAGHDMEDRCALRKCIPSSLHNCINIFAFWPSGHWAKFDDWSSKSILAAGRLSFLAGAGLAVADRAFHFNTSRKRATAMGKTLLSQLETYLLKHHPYVSKVNLVGHSLGGRVVIHALLDLQGKPADDSLVIGDVLLMAAASTLSGDEAKTIGERINGKLYNAWSSDDKVLLFNLGENSAGRQEIDHCQNVPMHGFGHTDYWPRLDRVLRASGFHGYRGGLPSAIQPELVIKNPDPVVADHLLYDLLELTSDGIRSQVVKHLRSSSWTKLETEHPLYLLTKEFQLLGGHCLVNLARGKGLKYVQILLMLAEHYGLVSELHDCAQVIEMEALLISKCFQSSFGEEHVLASMQDIVLQIHGLSEKEYFEQVDALAASLTVTSYISTPETPAPVYRKTGSAQTGDSKELVLASGSFLTSFSTLMPTERMKAAVINLKSAVKPGYSALIPAVAAVFYARLKLNNEGLL	not soluble
MKRVLVVDDEESITSSLSAILEEEGYHPDTAKTLREAEKKIKELFFPVIVLDVWMPDGDGVNFIDFIKENSPDSVVIVITGHGSVDTAVKAIKKGAYEFLEKPFSVERFLLTIKHAFEEYSKKAPPQEEIEFVGEHPKILEIKRLIPKIAKSKAPVLITGESGTGKEIVARLIHRYSGRKGAFVDLNCASIPQELAESELFGHEKGAFTGALTRKKGKLELADQGTLFLDEVGELDQRVQAKLLRVLETGSFTRLGGNQKIEVDIRVISATNKNLEEEIKKGNFREDLYYRLSVFQIYLPPLRERGKDVILLAEYFLKKFAKEYKKNCFELSEETKEYLMKQEWKGNVRELKNLIERAVILCEGEVIKPEDLGLKEKSWRDLSYLLKIKELKEAKKEFEKIFIEEKLREYDYDLKRTAEEIGIDLSNLYRKIKSLNIRVKSS	soluble
MTSFTGITAVANATNEMAMFKQAMKEVAAHPEWMSSRQIERQRWNPYSMEGGSTCAISGENFAIVASDTRMTQNDINILTRDAEKIQILNDNIILTTSGFYGDVLQLKKVLQSRLHKYRFDYRSDMSVDLCAELLSRNLYYRRFFPYYTGAILAGIDEHGKGAVFSYDPIGCIERLGYSASGAAEPMIIPFLDCQIGHVTLSEGYERPELTLDRAISLMKDSFRGAAEREISTGDKIHLVIAEAGKPVVVKFLPLRED	not soluble
MVGWRRMGLPADSLSDEALLALVARGDEEAFRALFRRYAGSFLALARRMGLDGAAAEDVVQEAMIRVWQKAKEFDPRRGSARAFLLTLGHHAAVDEVRRRAARPLPLEPDPEREEEAFDLPGPGLDEEGHLDRTRLGRALKALSPEERRVIEVLYYQGYTHREAASLLGLPLGTLKTWARRALSKLKEVLREP	soluble
QIQLTQSPSSLSASVGDRVTITCSASSSVNSSALFWYQQKPGKAPKPWIYLTSNLASGVPSRFSGSGSGTDYTLTISSLQPEDFATYYCQQISGNPWTFGQGTKVEIKRADAAPTVSIFPPSSEQLTSGGASVVCFLNNFYPKDINVKWKIDGSERQNGVLNSWTDQDSKDSTYSMSSTLTLTKDEYERHNSYTCEATHKTSTSPIVKSFNRNEC	soluble
MHHHHHHNEEFRPEMLQGKKVIVTGASKGIGREMAYHLSKMGAHVVLTARSEEGLQKVVSRCLELGAASAHYIAGTMEDMTFAEQFIVKAGKLMGGLDMLILNHITQTSLSLFHDDIHSVRRVMEVNFLSYVVMSTAALPMLKQSNGSIAVISSLAGKMTQPMIAPYSASKFALDGFFSTIRTELYITKVNVSITLCVLGLIDTETAMKEISGIINAQASPKEECALEIIKGTALRKSEVYYDKSPLTPILLGNPGRKIMEFFSLRYYNKDMFVSN	soluble
MGSDKIHHHHHHMKYRRIKGTNDIFGEEIWYWRYVEETFRNVCESAGIEEIRTPIFEQTELFVRSVGEESDIVQKEMYTFQDKAGRSITLRPEGTAPVVRAFLENSLIDRGFQQRYYYIGPMFRYEKPQSGRLRQFHQVGFEIIGPESPKADFEVIMLVDTFLRRLGLTKYKIHLNSIGCPVCRKNYREALKEYYGRILDNLCDDCKRRYETNILRLLDCKVDHEYSLNAPKSVDYLCDSCRAHYKKLKEYLNTFEIEYVEDHTLVRGLDYYTRTVFEVRHEGLGAQSAIAGGGRYDGLFAELGGSSVPALGFAGGIERIILALKAEGIEIPMKNVHLVYIATLGEKAFMDGVRLAGELRKKGLSVDVDIMDRKLSGQLKHASRMGSRYAVIIGDEELEKGIVILRDLETGDQVEIDRDFAADYIAERVSKD	not soluble
MGSDKIHHHHHHMDYNQTVLSHLQKFWKHHDIKGFTWTLGRIVEELPDFQVFQVIPNHEDEPWVYVSSGIGQFLGQEFFIISPFETPEHIETLAMLASASMHYPDQFQLGKTVNIGRPWVEQSSFRHFLISLPYPYGQELEYMDNVRFFWLLPITQTERLFLNTHSVEELETKFDEAGIDYLDINRASTVWQAG	not soluble
